Assay results taken from PMC7282669, “The hydrophobic effect characterises the thermodynamic signature of amyloid fibril growth” (PLoS Computational Biology, 2020).

Target: the molecule itself
Assay: ITC; crystals injected into water; heat of crystal dissolution taken as the negative of the heat of crystal growth; two temperatures

B1: GNNQQNY, a small fragment of the Sup35 protein (peptide)
peptide: GNNQQNY
notes: fragment of the Sup35 protein; Forms amyloid-like microcrystals; also called GNNQQNY peptide
B1: binds.
